Patent US20050069542A1 (Human Genome Sciences, published 2005)
Numbering of substitutions follows the chain as printed. Values belong to the binder of their own block, whether it stands above or below them.

Target: T1, flag-tagged soluble TL3 (amino acids 105-251 of SEQ ID NO:234) (Homo sapiens (Human), UniProt O75888 105-250)
T1 construct: Heterologous flag-tagged control protein, immobilized in the ELISA; also called flagged tagged TL-3; not shown: Flag tag
T1 sequence: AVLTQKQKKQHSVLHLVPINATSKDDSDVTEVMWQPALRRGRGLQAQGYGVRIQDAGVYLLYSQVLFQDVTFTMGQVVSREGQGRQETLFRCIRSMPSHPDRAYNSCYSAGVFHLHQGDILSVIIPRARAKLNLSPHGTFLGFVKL
Test: phage ELISA on immobilized flag-tagged soluble TL3
Method: The individual phage isolates in the panel of phage, each phage expressing a unique scFv that bound to flag-tagged GMAD, were tested to ensure specificity for GMAD using an ELISA assay. The scFvs were tested in an ELISA for their ability to bind a heterologous flag-tagged protein, in this case—immobilized soluble TL3 (amino acids 105-251 of SEQ ID NO:234, GenBank Accesion Number NP_{—}003799, also described in International Patent Application Publication Number WO97/33902 and WO2001/96528 which are herein incorporated by reference in their entireties).

binding result: no binding
B1: GMBC619 (scFv)
scFv: EVQLVESGGGVVQPGRSLRLSCAASGFTFRSYGMHWVRQAPGKGLEWVAVITYDGSNKYYADSVKGRFTISRDNSKNTLYLQMNSLRADDTAVYYCARDGGGWYHPRLDYWGQGTMVTVSSGGGGSGGGGSGGGGSSELTQDPAVSVALGQTVRITCQGDSLRSYYASWYQQKPGQAPVLVIYGKNNRPSGIPDRFSGSSSGNTASLTITGAQAEDEADYYCNSRDSSGNHVVFGGGTKLTVLG

binding result: no binding
B2: GMBC621 (scFv)
scFv: EVQLVQSGGGVVQPGRSLRLSCAASGFTFSSYGMHWVRQAPGKGLEWVAVISYDGSNKYYADSVKGRFTISRDNSKNTLYLQMDSLRAEDTAVYFCAKRGLWTPIDYWGKGTLVTVSSGGGGSGGGGSGGGGSSELTQDPAVSVALGQTVRITCQGDSLRSYYASWYQQKPGQAPVLVIYGKNNRPSGIPDRFSGSNSGNTASLTITGAQAEDEADYYCNSRDSSGNHVVFGGGTKLTVLG

binding result: no binding
B3: GMBC627 (scFv)
scFv: GVQLVQSGGEVKKPGASVRVSCKASRYIFSNYGFSWVRQAPGQGLEWMGSIRNDKGSTNYAQGFQDRLTMTTDTSTNTVFMELRSLSSDDTAVYYCASAPYYYGMGIWGKGTLVTVSSGGGGSGGGGSGGGGSQSVLTQPASVSGSSGQSITISCTGTSSDVGGYNYVSWYQQHPGKAPKLMIYEVGNRPSGVSNRFSGSKSGNTASLTISGLQAEDEADYYCSSYTTRSTRVFGGGTKLTVLG

binding result: no binding
B4: GMBC629 (scFv)
scFv: QVQLVESGGGLVKPGGSLRLSCAGSGFKFSDAWMNWVRQAPGKGLEWVGRIKSKGSGGTIEYAVPVKDRFIISRDDSKDTLYLQMNSLKTEDTALYYCTWDWDFYYGMNVWGQGTLVTVSSGGGGSGGGGSGGGGSSELTQDPAVSVALGQTVRITCQGDSLRSYYTNWFQQKPGQAPLLVVYAKNKRPSGIPDRFSGSSSGNTASLTITGAQAEDEADYYCHSRDSSGNHVLFGGGTKLTVLG

binding result: no binding
B5: GMBC685 (scFv)
scFv: QVQLVESGGVVVQPGGSLRLSCAASGFTFSDAWMNWVRQAPGKGLEWVGRIKSKGSGGTIDYAAPVKDRFTISRDDSKNTLYLQMNSLKTEDTALYYCTWDWDFYYGMNVWGKGTMVTVSSGGGGSGGGGSGGGGSSELTQDPAVSVALGQTVRITCQGDSLRSYYTNWFQQKPGQAPLLVVYAKNKRPSGIPDRFSGSSSGNTASLTITGAQAEDEADYYCHSRDSSGNHVLFGGGTKLTVLG

binding result: no binding
B6: GMBC729 (scFv)
scFv: B4 scFv with V5Q, V64A, N86D, S164N

binding result: no binding
B7: GMBC628 (scFv)
scFv: QVQLQQSGAEVKKPGASVRVSCKASGYTFTSYGFSWVRQAPGQRLEWMGWISAYKGNANYAEKFQGRVTMTTDTSTNTAYMELRSLRSDDTAVYYCARTRISVAGLDYYYYGLDVWGRGTLVTVSSGGGGSGGGGSGGGGSSELTQDPAVSVALGQTVRITCQGDSLRSYYTNWFQQKPGQAPLLVVYAKNNRPSGIPDRFSGSSSGNTASLTITGAQAEDEADYYCNSRDSSGNHVVFGGGTKLTVLG

binding result: no binding
B8: GMBC630 (scFv)
scFv: QVQLVESGGGLVQPGRSLRLPCAASGFTFSSYGMHWVRQAPGKGLEWVAVISYDGSNKYYADSVKGRFTISRDNSKNTLYLQMNSLRAEDTAVYYCAKATSLLNAFDIWGRGTMVTVSSGGGGSGGGGSGGGGSSELTQDPAVSVALGQTVRITCQGDSLRSYYASWYQQKPGQAPVLVIYGKNNRPSGIPDRFSGSSSGNTASLTITGAQAEDEADYYCNSRDSSGNHVVFGGGTKLTVLG

binding result: no binding
B9: GMBC665 (scFv)
scFv: EVQLVETGGGLVKPGGSLRLSCAASGFTFSDAWMNWVRQAPGKGLEWVGRIKSKGSGGTIDYAAPVKDRFTISRDDSKNTLYLQMNSLKTEDTALYYCTWDWDFYYGMNVWGQGTMVTVSSGGGGSGGGGSGGGGSSELTQDPAVSVALGQTVRITCQGDSLRSYYASWYQQKPGQAPVLVIYGKNNRPSGIPDRFSGSSSGNTASLTITGAQAEDEADYYCNSRDSSGNHVVFGGGTKLTVLG

binding result: no binding
B10: GMBC648 (scFv)
scFv: B9 scFv with E1Q, T7S, G55R, A144T

binding result: no binding
B11: GMBC632 (scFv)
scFv: B9 scFv with E1Q, E6Q, T7S, A24G, T28K, D61E, T71I, N79D, G107D, S197F

binding result: no binding
B12: GMBC635 (scFv)
scFv: B9 scFv with T7S, F70Y, Q113K

binding result: no binding
B13: GMBC657 (scFv)
scFv: QMQLMQSGGGLVKPGGSLRLSCAGSGFKFSDAWMNWVRQAPGKGLEWVGRIKSKGSGGTIEYAAPVKDRFIISRDDSKDTLYLQMNSLKTEDTALYYCTWDWDFYYGMNVWGQGTLVTVSSGGGGSGGGGSGGGGSSELTQDPAVSVALGQTVRITCQGDSLRSYYASWYQQKPGQAPVLVIYGKNNRPSGIPDRFSGSSSGNTASLTITGAQAEDEADYYCNSRDSSGNHVVFGGGTKLTVLG

binding result: no binding
B14: GMBC638 (scFv)
scFv: QVQLVQSGGGLVKPGESLRLSCEASGFEFNYAWMSWVRQAPGKGLEWVGRSRSVASGGTTDYAAPLQDRFTISRDDSKNTLYLQVNSLKIEDTGVYFCKWEKSEYYGMDVWGRGTMVTVSSGGGGSGGGGSGGGGSQSVLTQPASVSGSPGQSITISCTGTSSDVGGYNYVSWYQQHPGKAPKLMIYEGSKRPSGVSNRFSGSKSGNTASLTISGLQAEDEADYYCSSYTTRSTRVFGGGTKLTVLG

binding result: no binding
B15: GMBC659 (scFv)
scFv: B14 scFv with Q6E, V54E, M116L

binding result: no binding
B16: GMBC626 (scFv)
scFv: B14 scFv with Q1E, V54E, M116P, Q217R, R232K, R235Q

binding result: no binding
B17: GMBC604 (scFv)
scFv: EVQLVQSGAEVKKPGESLRISCKGSGYTFTNYWINWVRQVPGKGLEWMGMIDPTDSYAKYSPSFQGHVTISTDKSVSTAYLQWRSLQASDSAIYYCVRGYSYDLDYWGKGTLVTVSSGGGGSGGGGSGGGGSQSVLTQPASVSGSPGQSITISCTGTSSDVGGYNYVSWYQQHPGKAPKLMIYEGSKRPSGVSNRFSGSKSGNTASLTISGLQAEDEADYYCSSYTTRSTRVFGGGTKLTVLG
